Patent US20040018516A1

Experiments:
Factor Xa = Factor Xa (UniProt P00742); assay: cell-based or functional assay
[1] = molecular target: Factor VIIa/Tissue Factor (lipidated) complex (UniProt P08709); assay: cell-based or functional assay
[2] = molecular target: Ixolaris (recombinant, mature protein of 140 amino acids)

UniProt P08709, sequence (P08709 61-466 limits assumed, chain 1 of 2): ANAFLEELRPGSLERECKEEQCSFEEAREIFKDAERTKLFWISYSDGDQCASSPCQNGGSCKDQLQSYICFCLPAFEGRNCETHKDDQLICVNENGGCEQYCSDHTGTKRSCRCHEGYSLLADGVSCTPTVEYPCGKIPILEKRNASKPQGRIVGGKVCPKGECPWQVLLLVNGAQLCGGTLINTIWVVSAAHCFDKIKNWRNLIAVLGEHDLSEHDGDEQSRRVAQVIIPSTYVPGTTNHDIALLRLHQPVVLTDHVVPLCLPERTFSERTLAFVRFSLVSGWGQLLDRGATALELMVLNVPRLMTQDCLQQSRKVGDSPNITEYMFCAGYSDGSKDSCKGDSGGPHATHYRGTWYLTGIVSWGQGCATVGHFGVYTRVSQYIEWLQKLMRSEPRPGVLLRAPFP
UniProt P08709, sequence (P13726 33-295 limits assumed, chain 2 of 2, further chain): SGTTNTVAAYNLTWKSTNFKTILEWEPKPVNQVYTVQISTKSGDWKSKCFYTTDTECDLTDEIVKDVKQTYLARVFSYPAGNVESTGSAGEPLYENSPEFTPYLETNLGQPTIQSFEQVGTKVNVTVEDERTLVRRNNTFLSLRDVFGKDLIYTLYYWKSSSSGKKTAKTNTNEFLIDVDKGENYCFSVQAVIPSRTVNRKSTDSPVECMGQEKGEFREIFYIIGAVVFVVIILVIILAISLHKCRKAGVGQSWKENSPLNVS

Molecule: Ixolaris (recombinant, mature protein of 140 amino acids) (from UniProt Q964Q0 27-165)
- ED50 of the increase of Factor Xa (125 pM) esterolytic activity on S2222 (Factor Xa): 159 pM
- increase of amidolytic activity of Factor Xa (640 pM) by Ixolaris (400 pM) (Factor Xa): 40%
- Residual activity (%) of VIIa/TF (6.4 pM)/S2288 (1 mM) with 32 nM Ixolaris [1]: 0%
- inhibition of Factor X (200 nM) activation after preincubation of Factor VIIa/TF (1 nM/0.2 pM) with 100 pM Ixolaris [1]: 65%

Molecule: Ixolaris/DEGR-Factor X complex (from UniProt P00742 41-488)
- inhibition of Factor X (200 nM) activation after preincubation of Factor VIIa/TF with 100 pM Ixolaris/DEGR-Factor X [1]: > 85%

Molecule: full-length human TFPI (recombinant, 4900PC) (from UniProt P10646 29-304)
- IC50 of inhibition of Factor VIIa/TF-induced Factor X activation, at 15 nM Factor X [1]: 610 pM
- IC50 of inhibition of Factor VIIa/TF-induced Factor X activation, at 75 nM Factor X [1]: 620 pM
- IC50 of inhibition of Factor VIIa/TF-induced Factor X activation, at 200 nM Factor X [1]: 625 pM

B1: γ-carboxyglutamic acid domainless Factor Xa (des-Gla-Factor Xa) (protein)
chain: KDGDQCETSPCQNQGKCKDGLGEYTCTCLEGFEGKNCELFTRKLCSLDNGDCDQFCHEEQNSVVCSCARGYTLADNGKACIPTGPYPCGKQTLERIVGGQECKDGECPWQALLINEENEGFCGGTILSEFYILTAAHCLYQAKRFKVRVGDRNTEQEEGGEAVHEVEVVIKHNRFTKETYDFDIAVLRLKTPITFRMNVAPACLPERDWAESTLMTQKTGIVSGFGRTHEKGRQSTRLKMLEVPYVDRNSCKLSSSFIITQNMFCAGYDTKQEDACQGDSGGPHVTRFKDTYFVTGIVSWGEGCARKGKYGIYTKVTAFLKWIDRSMKTRGLPKAKSHAPEVITSSPLK
- activity of 0.4 nM des-Gla-Factor Xa plus 1.6 nM Ixolaris (control without Ixolaris: 1.4±0.12 units of Vmax) [2]: 0.4 nM des-Gla-Factor Xa plus 1.6 nM Ixolaris: 2.78±0.1 units of Vmax
- fold increase of des-Gla-Factor Xa proteolytic activity in the presence of 1.6 nM Ixolaris [2]: proteolytic activity increased 1.98 fold in the presence of Ixolaris
